How the values were obtained:
Human Ang-2FD-hFc = molecular target: T1, Human Ang-2FD-hFc (human); assay: blocking ELISA, 16.67 nM antibody, Ang-2FD-hFc to coated hTie-2-mFc
T1 construct: also called dimeric human Ang-2FD; human Ang-2FD protein conjugated to human IgG

Mouse Ang-2FD-hFc = molecular target: T2, Mouse Ang-2FD-hFc (mouse (Mus musculus)); assay: as above
T2 construct: also called dimeric mouse Ang-2FD

Biotin-hBA2 = molecular target: T3, Biotin-hBA2 (human, biotinylated (sites not given)); assay: blocking ELISA, biotin-hBA2 to hTie-2; NB = no blocking observed at 5 nM concentration
T3 construct: hBA2 consists of two dimers; also called biotinylated hBA2; human bow-Ang2
T3 sequence (chain, as listed by the source limits assumed): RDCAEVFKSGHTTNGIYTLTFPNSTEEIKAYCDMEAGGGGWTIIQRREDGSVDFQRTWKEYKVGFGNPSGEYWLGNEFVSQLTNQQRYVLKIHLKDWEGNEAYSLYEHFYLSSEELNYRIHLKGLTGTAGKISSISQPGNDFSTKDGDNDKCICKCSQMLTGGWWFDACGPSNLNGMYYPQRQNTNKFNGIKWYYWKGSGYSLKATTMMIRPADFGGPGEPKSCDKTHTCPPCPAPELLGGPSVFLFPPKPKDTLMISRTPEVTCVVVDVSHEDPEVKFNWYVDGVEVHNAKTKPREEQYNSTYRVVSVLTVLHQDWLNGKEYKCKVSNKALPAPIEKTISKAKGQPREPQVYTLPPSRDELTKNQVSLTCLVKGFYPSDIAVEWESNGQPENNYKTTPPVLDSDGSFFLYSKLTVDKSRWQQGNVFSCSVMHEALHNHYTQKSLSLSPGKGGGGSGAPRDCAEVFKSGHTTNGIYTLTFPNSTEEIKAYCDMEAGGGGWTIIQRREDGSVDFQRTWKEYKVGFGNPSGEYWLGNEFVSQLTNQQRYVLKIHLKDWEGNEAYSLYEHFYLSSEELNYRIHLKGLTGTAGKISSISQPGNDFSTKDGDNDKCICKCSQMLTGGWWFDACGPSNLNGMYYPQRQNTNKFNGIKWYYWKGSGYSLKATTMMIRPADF
Procedure: The plate was then blocked with PBS (Irvine Scientific, Santa Ana, Calif.) containing 0.5% BSA (Sigma-Aldrich Corp., St. Louis, Mo.) for one hour at room temperature. […] Human, mouse or monkey Ang-2FD protein conjugated to human IgG (Ang-2FD-hFc) were added to final concentrations of 2 nM, 8 nM, or 2 nM respectively and incubated for one hour at room temperature. The antibody/Ang-2FD-Fc mixture was then added to the plate containing hTie-2-mFc and incubated for one hour at room temperature. Detection of Ang-2FD-hFc bound to hTie-2-mFc protein was determined with Horse-Radish Peroxidase (HRP) conjugated to a-human IgG antibody (Jackson Immuno Research Lab, West Grove, Pa.) and developed by standard colorimetric response using tetramethylbenzidine (TMB) substrate (BD Biosciences, San Jose, Calif.). Absorbance was read at OD₄₅₀ for 0.1 sec.
For this experiment, human Tie-2 conjugated to a histidine tag (hTie-2-His; SEQ ID NO:526) was used in a similar fashion to the hTie-2-mFc described above. Antibody concentrations from 5 nM were serially diluted three-fold. […] An average IC₅₀ value for each antibody was calculated based on two separate experiments.

T2 sequence (chain, as listed by the source limits assumed): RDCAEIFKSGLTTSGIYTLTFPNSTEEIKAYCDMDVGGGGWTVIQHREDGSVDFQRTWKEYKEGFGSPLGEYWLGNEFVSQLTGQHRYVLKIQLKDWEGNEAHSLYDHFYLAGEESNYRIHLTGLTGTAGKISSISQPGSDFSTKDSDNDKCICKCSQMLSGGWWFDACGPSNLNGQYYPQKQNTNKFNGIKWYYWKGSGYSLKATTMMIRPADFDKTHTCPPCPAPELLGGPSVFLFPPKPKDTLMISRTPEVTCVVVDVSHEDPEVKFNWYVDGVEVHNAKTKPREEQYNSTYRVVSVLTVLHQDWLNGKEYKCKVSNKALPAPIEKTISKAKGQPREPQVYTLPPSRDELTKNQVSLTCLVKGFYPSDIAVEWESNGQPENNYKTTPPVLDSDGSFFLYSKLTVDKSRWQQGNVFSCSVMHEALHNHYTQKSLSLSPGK
T1 sequence (chain, as listed by the source limits assumed): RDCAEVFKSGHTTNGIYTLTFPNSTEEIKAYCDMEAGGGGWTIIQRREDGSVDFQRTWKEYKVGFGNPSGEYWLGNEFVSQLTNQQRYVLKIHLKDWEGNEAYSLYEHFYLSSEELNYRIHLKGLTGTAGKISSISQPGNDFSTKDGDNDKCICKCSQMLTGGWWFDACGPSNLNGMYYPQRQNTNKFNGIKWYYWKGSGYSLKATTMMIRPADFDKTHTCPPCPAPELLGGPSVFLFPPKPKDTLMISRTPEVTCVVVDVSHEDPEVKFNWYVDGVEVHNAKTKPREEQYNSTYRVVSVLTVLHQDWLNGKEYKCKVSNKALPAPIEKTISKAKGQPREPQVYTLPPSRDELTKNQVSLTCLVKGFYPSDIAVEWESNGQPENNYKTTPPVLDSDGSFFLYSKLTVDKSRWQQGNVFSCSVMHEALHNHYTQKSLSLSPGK

B1: H1H693P (antibody, human IgG1, V domains shown)
VH: EVQLVESGGGLVQPGESLRLSCAASGFTFSSYAMSWVRQGPGKGLEWVSSISGSGGTTYYADSVEGRFTISRDNSKNTLYLHMNSLRAEDTAVYYCAKDFLDYSTYLAFDLWGQGTMVTVSS
VL: DIQMTQSPSSVSASVGDRVTITCRASQGISSWLAWYQQKPGKAPKLLIYAASSLQSGVPSRFSGSGSGTDFTLTISSLQPEDFATYYCQQANSFPRTFGQGTKVEIK
notes: Human IgG1
Human Ang-2FD-hFc
  Percent Blocking of Ang-2FD Binding to Tie-2: 73.9%
Mouse Ang-2FD-hFc
  Percent Blocking of Ang-2FD Binding to Tie-2: 63.6%
Biotin-hBA2
  IC50: > 5 nM

Reference: patent US20140112930A1 (published 2014)
